Publication PMC7545097, “Mapping the native interaction surfaces of PREP1 with PBX1 by cross-linking mass-spectrometry and mutagenesis” (Scientific Reports, 2020)

T1: N-terminal GST-fused wild-type PREP1 (UniProt P55347 1-436)
T1 construct: PREP1 (PKNOX1), residues 1-436; Detected through GST in the ELISA; also called GST-fused PREP1; source: E. coli, purified; not shown: GST, N-terminal, kept
T1 sequence (looked up): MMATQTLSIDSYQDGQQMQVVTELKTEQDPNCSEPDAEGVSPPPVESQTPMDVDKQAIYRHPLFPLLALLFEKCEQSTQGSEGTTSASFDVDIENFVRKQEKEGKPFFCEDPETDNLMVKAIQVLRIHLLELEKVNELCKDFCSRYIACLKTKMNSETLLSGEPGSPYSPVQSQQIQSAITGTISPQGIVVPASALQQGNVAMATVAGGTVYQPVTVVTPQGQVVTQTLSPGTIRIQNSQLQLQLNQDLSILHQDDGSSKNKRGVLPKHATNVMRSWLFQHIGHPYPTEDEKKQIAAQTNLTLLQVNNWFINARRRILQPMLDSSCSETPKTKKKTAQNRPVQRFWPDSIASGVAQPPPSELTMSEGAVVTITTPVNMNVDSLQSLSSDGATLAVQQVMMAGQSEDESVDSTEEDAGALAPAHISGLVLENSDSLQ

T2: PBX1 Δ77-84 (human, UniProt P40424 1-430, Δ77−84)
T2 construct: PBX1, residues 1-430, with an internal deletion; source: E. coli, purified
T2 sequence (looked up): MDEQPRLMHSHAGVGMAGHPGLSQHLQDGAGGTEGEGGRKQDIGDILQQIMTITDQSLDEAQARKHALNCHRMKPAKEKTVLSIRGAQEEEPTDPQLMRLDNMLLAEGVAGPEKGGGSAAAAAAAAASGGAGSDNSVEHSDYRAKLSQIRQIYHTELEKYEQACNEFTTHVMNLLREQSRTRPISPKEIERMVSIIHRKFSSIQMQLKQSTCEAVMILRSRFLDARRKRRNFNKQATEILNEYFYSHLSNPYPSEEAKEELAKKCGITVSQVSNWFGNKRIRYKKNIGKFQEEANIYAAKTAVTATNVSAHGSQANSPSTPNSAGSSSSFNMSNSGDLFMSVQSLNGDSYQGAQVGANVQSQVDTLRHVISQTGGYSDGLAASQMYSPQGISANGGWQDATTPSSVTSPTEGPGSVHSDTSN


How the values were obtained:
[1] = target: T1, N-terminal GST-fused wild-type PREP1; assay: ELISA; PBX1 wild-type coated at 0.1 µM in 100 mM Tris–HCl pH 7.5; GST-fused proteins at 0.23 nM to 0.5 µM, 1 h at 37 °C; anti-GST detection; GST signal subtracted; one-site binding model; conditions: both partners purified
[2] = target: T2, PBX1 Δ77-84; assay: time-resolved fluorescence immunoassay (TR-FIA); plate coated with monoclonal anti-PBX1; PBX1 pre-incubated with PREP1 or MEIS1 for 1 h on ice, 10 µg/mL in 1% BSA PBS, 1 h at room temperature on the plate; detected with anti-PREP1 or biotinylated anti-MEIS1/2 and Eu^3+ conjugates; normalised to the wild-type protein taken as 1; conditions: both partners purified
[3] = target: single mutations of most hydrophobic residues (V80, L81 and I84) of PBX1; assay: as above
[4] = target: double or triple mutants (L77A/V80A, L77A/I84A, V80A/L81A, L77A/V80A/L81A) of PBX1; assay: as above
[5] = target: PBX1Δ197-204 (human) (UniProt P40424); assay: as above

Binder | Kd [1] | binding relative to wild type [2] | binding relative to wild type [3] | binding relative to wild type [4] | binding relative to wild type [5]
PBX1_(1-430), wild-type recombinant (natural protein, human, UniProt P40424 1-430, looked up, also called wild-type PBX1; purified recombinant human PBX1; source: E. coli, purified) MDEQPRLMHSHAGVGMAGHPGLSQHLQDGAGGTEGEGGRKQDIGDILQQIMTITDQSLDEAQARKHALNCHRMKPALFNVLCEIKEKTVLSIRGAQEEEPTDPQLMRLDNMLLAEGVAGPEKGGGSAAAAAAAAASGGAGSDNSVEHSDYRAKLSQIRQIYHTELEKYEQACNEFTTHVMNLLREQSRTRPISPKEIERMVSIIHRKFSSIQMQLKQSTCEAVMILRSRFLDARRKRRNFNKQATEILNEYFYSHLSNPYPSEEAKEELAKKCGITVSQVSNWFGNKRIRYKKNIGKFQEEANIYAAKTAVTATNVSAHGSQANSPSTPNSAGSSSSFNMSNSGDLFMSVQSLNGDSYQGAQVGANVQSQVDTLRHVISQTGGYSDGLAASQMYSPQGISANGGWQDATTPSSVTSPTEGPGSVHSDTSN | 18 ± 4 nM |  |  |  | 
PREP1_(1-436), wild-type recombinant (TR-FIA) (natural protein, UniProt P55347 1-436, looked up, also called wild-type PREP1; PKNOX1; source: E. coli, purified) MMATQTLSIDSYQDGQQMQVVTELKTEQDPNCSEPDAEGVSPPPVESQTPMDVDKQAIYRHPLFPLLALLFEKCEQSTQGSEGTTSASFDVDIENFVRKQEKEGKPFFCEDPETDNLMVKAIQVLRIHLLELEKVNELCKDFCSRYIACLKTKMNSETLLSGEPGSPYSPVQSQQIQSAITGTISPQGIVVPASALQQGNVAMATVAGGTVYQPVTVVTPQGQVVTQTLSPGTIRIQNSQLQLQLNQDLSILHQDDGSSKNKRGVLPKHATNVMRSWLFQHIGHPYPTEDEKKQIAAQTNLTLLQVNNWFINARRRILQPMLDSSCSETPKTKKKTAQNRPVQRFWPDSIASGVAQPPPSELTMSEGAVVTITTPVNMNVDSLQSLSSDGATLAVQQVMMAGQSEDESVDSTEEDAGALAPAHISGLVLENSDSLQ |  | 35% | 40 to 60% | 30 to 40% | 65%
